B1: G001_gp1_V10_VRC01c_2021-0121 (antibody, V domains shown)
VH: QVQLVQSGAEVKKPGASVKVSCKASGYSFTGYYIHWVRQVPGQGLEWMGWINPNSGGTNYAQEFQDWVTMTRDTSISTAYMELSRLRSDDTAVYYCARHKPSSRFYFDYWGQGTLVTVSS
VL: DIQMTQSPSTLSASVGDRVTITCRASQSISSWLAWYQQKPGKAPKFLLMYDASSLESGVPSRFSGSGSGTEFTLTISSLQPDDFATYYCQQYETFGQGTKVEIK
B2: G001_gp1_V10_VRC01c_2021-0124 (antibody, V domains shown)
VH: QVQLVQSGAEVKKPGASVKVSCKASGYTFTGYYMHWVRQAPGQGLEWMGWINPNSGGTNYARKFQGWVTMTRDTSIGTAYMELSRLRSDDTAVYYCAKSRSRDDTWLFDYWGQGTLVTVSS
VL: DIVMTQSPDSLAVSLGERATINCKSSRSVLYSSNNKNFLTWYQQKPGQPPKLLIYWASTRESGVPERFSGSGSGTDFTLTISSLQAEDVAVYYCQQYESFGQGTKLEIK
B3: G001_gp1_V10_VRC01c_2021-0120 (antibody, V domains shown)
VH: QVQLVQSGAEVKKPGASVKVSCKASGYTFSGYYMHWVRQAPGQGLEWMGWINPNSGGTNYAQRFQDWVTMTRDTSISTAYMELSRLRSDDTAVYYCARAEYSSAWCFDYWGQGTLVTVSS
VL: DIQMTQSPSSLSASVGDRVTITCQASQDSSKSLNWYQQKPGKAPKLLIYDVSNLETGVPSRFSGSGSGRDFTFTISSLQAEDTATYYCQQYDIFGPGTKVHIK
B4: G001_gp1_V10_VRC01c_2021-0117 (antibody, V domains shown)
VH: QVQLVQSGAEVKKPGASVKVSCKASGYTFTGYYMHWVRQAPGQGLEWMGWINPNSGGTNYAQKFQGWVTMTRDTSISTAYMEVSRLTSDDTAVYYCARGEDNWYSFNYWGQGTLVTVSS
VL: EIVMTQSPATLSVSPGERATLSCRASQSVSSKLAWYQQKPGQAPRLLIYGTSTRATGIPARFSGSGSGTEFTLTISSLQSEDFAVYYCQLYETFGQGTKVEIK
B5: G001_gp1_V10_VRC01c_2021-0109 (antibody, V domains shown)
VH: QVQLVQSGAEVKKPGASVKVSCKASGYSFTGYYMHWVRQAPGQGLEWMGWMNPNSGGTNYAQKFQGWVTMTRDTSISTAYMELSRLRSDDSAVYYCARARSGYSSGWYWAYWGQGTLVTVSS
VL: DIQMTQSPSSLSASVGDRVTITCQASQDISNYLNWYQQKPGKAPKLLIYDASNLETGVPSRFSGSGSGTDFTFTISSLQPEDIATYYCQQYEFFGGGTKVEIK
B6: G001_gp1_V10_VRC01c_2021-0128 (antibody, V domains shown)
VH: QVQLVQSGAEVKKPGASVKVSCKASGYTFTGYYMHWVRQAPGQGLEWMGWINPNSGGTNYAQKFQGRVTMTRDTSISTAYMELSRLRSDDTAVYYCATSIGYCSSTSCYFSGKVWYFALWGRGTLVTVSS
VL: B5 VL with K45N, S76T, F93T, G96Q, K99N, V100L
B7: G001_gp1_V10_VRC01c_2021-0135 (antibody, V domains shown)
VH: QVQLVQSGAEVKKPGASVKVSCKASGYTFTDYYMHWVRQAPGQGLEWMGWINPSSGGTNYAQKFQDWVTMTRDTSISTAYMELSRLRSDDTAVYYCATVAPAAATWGFDSWGQGTLVTVSS
VL: B5 VL with M4T, Y32H, A43G, E55K, T74I, G96P, E101D
B8: G001_gp1_V10_VRC01c_2021-0122 (antibody, V domains shown)
VH: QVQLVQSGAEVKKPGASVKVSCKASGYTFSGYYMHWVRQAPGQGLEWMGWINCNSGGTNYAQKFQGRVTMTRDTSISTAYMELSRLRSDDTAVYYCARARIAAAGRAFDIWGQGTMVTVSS
VL: B5 VL with E92G, F93T, G96Q, V100L
B9: G001_gp1_V10_VRC01c_2021-0133 (antibody, V domains shown)
VH: QVQLVQSGPEVKKPGASVKVSCTASGFSFTGYYIHWLRQAPGPGLEWMGWINPNSGGTNYAQIFQDRVTMTRDTSISTAYMELSRLRSDDTAVYYCARVSVTTVWYFDLWGRGTLVTVSS
VL: B5 VL with A51V, S52F, F93T
B10: G001_gp1_V10_VRC01c_2021-0127 (antibody, V domains shown)
VH: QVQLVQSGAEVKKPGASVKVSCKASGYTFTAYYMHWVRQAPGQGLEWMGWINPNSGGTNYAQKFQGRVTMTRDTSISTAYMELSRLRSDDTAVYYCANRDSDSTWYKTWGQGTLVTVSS
VL: B5 VL with S30T, Y32H, R61S, I83V, E92V, F93T
B11: G001_gp1_V10_VRC01c_2021-0134 (antibody, V domains shown)
VH: QVQLVQSGAEVKKPGASVKVSCEASGYTFTGSYMHWVRQAPGQGLEWMGWINPNSGGTNYAQKFQGRVTMTRDTSITTAYMELSRLRSDDTAVYYCATRAAATNWYFDLWGRGTLVTVSS
VL: B5 VL with S30N, Y32H, P44L, E55Q, K103G
B12: G001_gp1_V10_VRC01c_2021-0132 (antibody, V domains shown)
VH: QVQLVQSGAEVKKPGASVKVSCQASGYTFTAYHMHWVRQAPGQGLEWMGWINPTSGGTNYAQKFQGRVTMTRDTSITTAYMDLTRLRSDDTAVYYCARHRGGWFFDLWGRGTLVTVSS
VL: B5 VL with K45N, T56A, F93T, G96Q, V100L, K103R
B13: G001_gp1_V10_VRC01c_2021-0137 (antibody, V domains shown)
VH: QVQLVQSGAEVKKPGASVKVSCKASGYTFTGYYMYWVRQAPGQGFEWMGWLNPNSGGTNYAQKFQGRVTMTRDTSISTAYMELSRLRSDDTAVYYCARVTSGSGWAFDYWGQGTLVTVSS
VL: B5 VL with Y32N, A51V, E92G, F93T
B14: G001_gp1_V10_VRC01c_2021-0131 (antibody, V domains shown)
VH: QVQLVQSGAEVKKPGASVKVSCEASGYTFTDYYIHWVRQAPGQGLEWMGWINPSSGGTNYAQKFQGWVTMTRDTSISTAYMELSRLTSDDTAFYYCARGLGRQWEWGYWGQGTLVTVSS
VL: B5 VL with S9P, N31K, P40A, A51V, G96Q, K99R, V100L
B15: G001_gp1_V10_VRC01c_2021-0119 (antibody, V domains shown)
VH: QVQLVQSGAEVKRPGASVMVSCKASGYTFTNYYMHWVRQAPGQGLEWMGWINPSSGGTNYAQKFQDWVTMTRDTSISTVYMELNRLRFDDTAVYFCARAQSSGWFLDFWGQGTLVTVSS
VL: B5 VL with D28G, I29F, S30T, N31K, P40L, G66A, E92D, F93L, K103R
B16: G001_gp1_V10_VRC01c_2021-0136 (antibody, V domains shown)
VH: B5 VH with K23T, S28T, M51I, S77N, S91T
VL: B5 VL with Y32H, K103T
B17: G001_gp1_V10_VRC01c_2021-0130 (antibody, V domains shown)
VH: QVQLVQSGAEVKKPGASVKVSCKASGYTFTGYYMHWVRQAPGQGLEWMGWINPKSGGTNYAQKFQDWVTMTRDTSISTAYMELSRLRSDDTAVYYCARARVEPGSSWLWGYWGQGTLVTVSS
VL: B5 VL with A51V, F93T
B18: G001_gp1_V10_VRC01c_2021-0114 (antibody, V domains shown)
VH: QVQLVQSGAEVKKPGASVKVSCKASGYTFTGYNIHWVRQDPGQGLEWMGWINPNSGGTNYAQKFQDWVTMTRDMSISTAYMELSRLRSDDTAIYYCAAVAGRRGRWAFDIWGQGTMVTVSS
VL: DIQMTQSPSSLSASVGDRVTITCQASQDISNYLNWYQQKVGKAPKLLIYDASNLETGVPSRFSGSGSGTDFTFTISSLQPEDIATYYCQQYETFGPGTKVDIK
B19: G001_gp1_V10_VRC01c_2021-0116 (antibody, V domains shown)
VH: QVQLVQSGAEVKKPGASVKVSCKASGYTFTDYYIHWVRQAPGQGLEWMGWINPNSGGTNYAQKFQGRVTMTRDTSITTAYMELSRLRSDDTAVYYCARICSGGSCYRTTSTFDYWGQGTLVTVSS
VL: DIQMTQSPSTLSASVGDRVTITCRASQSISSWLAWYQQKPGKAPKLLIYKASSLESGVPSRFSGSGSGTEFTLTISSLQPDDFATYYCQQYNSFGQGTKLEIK
B20: G001_gp1_V10_VRC01c_2021-0126 (antibody, V domains shown)
VH: QVQLVQSGAEVKKPGASVKVSCKASESTFTDYYMHWVRQAPGQGLEWMGWMNPNSGGTNYALKFQGRVTMTRDTSISTAYMELSRLRSDDTAVYYCATKRRGTYFDQWGQGTLVTVSS
VL: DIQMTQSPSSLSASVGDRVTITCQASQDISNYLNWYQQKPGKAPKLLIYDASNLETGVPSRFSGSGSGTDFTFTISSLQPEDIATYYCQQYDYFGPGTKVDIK
B21: G001_gp1_V10_VRC01c_2021-0111 (antibody, V domains shown)
VH: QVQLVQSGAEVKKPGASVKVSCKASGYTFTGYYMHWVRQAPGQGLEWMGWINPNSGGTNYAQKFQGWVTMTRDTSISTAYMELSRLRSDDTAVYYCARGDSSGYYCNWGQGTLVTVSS
VL: DIQMTQSPSTLSASVGDRVTITCRASQSISSWLAWYQQKPGKAPKLLIYKASSLESGVPSRFSGSGSGTEFTLTISSLQPDDFATYYCQQYTTFGGGTKVEIK
B22: G001_gp1_V10_VRC01c_2021-0123 (antibody, V domains shown)
VH: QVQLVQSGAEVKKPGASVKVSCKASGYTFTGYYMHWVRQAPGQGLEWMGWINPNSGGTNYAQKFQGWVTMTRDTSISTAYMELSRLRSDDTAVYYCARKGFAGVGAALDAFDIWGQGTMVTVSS
VL: B21 VL with T92N, G96Q
B23: G001_gp1_V10_VRC01c_2021-0125 (antibody, V domains shown)
VH: QVQLVQSGAEVKKPGASVKVSCKASGYTFTGYYIHWVRQAPGQGLEWMGWLNPNSGGTNYLQKFQDRVTMTRDTSIGTAYMELSTLRSDDTAVYYCARGNSGPWAWRYWGQGTLVTVSS
VL: QSALTQPASVSGSPGQSITISCTGTSSDVGGYNSVSWYQQHPGKAPKLMIYDVSNRPSGVSNRFSGSKSGNTASLTISGLQPEDEADYYCSSYEVFGGGTKLTVL
B24: G001_gp1_V10_VRC01c_2021-0110 (antibody, V domains shown)
VH: QVQLVQSGAEVKKPGASVRVSCKASGYTFTGYYMHWVRQAPGQGLEWMGWTNPNSGGTNYAQKFQGWVTMTRDTSISTAYMELSRLRSDDTAVYYCARGEAYSTRYFDLWGRGTLVTVSS
VL: EIVLTQSPGTLSLSPGERATLSCRASQSVSSSYLAWYQQKPGQAPRLLIYDTSSRATGIPDRFSGSGSGTDFTLTISRLEPEDFAVYYCQQYETFGQGTKVEIK
B25: G001_gp1_V10_VRC01c_2021-0112 (antibody, V domains shown)
VH: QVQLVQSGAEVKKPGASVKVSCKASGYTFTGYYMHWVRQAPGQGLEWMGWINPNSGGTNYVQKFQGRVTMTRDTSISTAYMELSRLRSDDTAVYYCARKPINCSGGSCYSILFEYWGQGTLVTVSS
VL: B24 VL with R24W, S30N, S32R, L34V, D51G, T52A, K100R, V101L
B26: G001_gp1_V10_VRC01c_2021-0115 (antibody, V domains shown)
VH: QVQLVQSGAEVKKPGASVKVSCNASGYTFTGYYMHWVRQAPGQGLEWMGWINPNSGGTNFAQKFQGWVTMTRDTSISTAYMELSRLRSDDTAVYYCARSIVGATIFVYWGQGTLVTVSS
VL: B24 VL with V29L, D51G, T52A, E93G, T94A, Q97P, E102D

Residue numbers refer to the chain shown, from its start.

In this assay the target is eOD-GT8 (engineered outer domain germline-targeting version 8), monomer (HIV-1 gp120 engineered outer domain, …).
In the case of B1, the binding result is given as “binds”.

On to B2, for which the binding result is “binds”. Under B3 stands “binds”; under B4, “binds”. To B5 belongs “binds”. To B6 belongs “binds”; to B7, “binds”; to B8, “binds”. In the case of B9, the binding result is “binds”. Under B10 stands “binds”; under B11, “binds”; under B12, “binds”. On to B13, for which the binding result is on record as “binds”.

For B14, the binding result was “binds”.

As to B15, the binding result is given as “binds”. Under B16 stands “binds”; under B17, “binds”; under B18, “binds”. To B19 belongs “binds”. As to B20, the binding result was “binds”.

As to B21, the binding result is “binds”.

For the molecule B22, the binding result is “binds”. To B23 belongs “binds”.

Turning to B24, the binding result is reported as “binds”. Consider B25, for which the binding result is given as “binds”. Under B26 stands “binds”.

The record behind these values is publication PMC12377726 (Proceedings of the National Academy of Sciences of the …, 2025).
